# Experimental data taken from publication doi:10.1101/2021.08.27.457910.
# What was measured:
# [1] = target: Sgo1_(1-130) (human) (UniProt Q5FBB7); experiment: ITC
# [2] = target: Sgo1_(1-415) (human) (UniProt Q5FBB7); experiment: ITC
# [3] = target: Sgo1_(1-415) (human) (UniProt Q5FBB7); experiment: mass photometry
stoichiometry N [3],Substance,Kd [1] [nM],Kd [2] [nM],dH [2] [kcal/mol],stoichiometry N [2]
,"CPC_(ISB10-280) (INCENP_(1-58), Survivin full length and Borealin_(10-280)) (from UniProt Q9NQS7 1-58; O15392 1-142; Q53HL2 10-280) (complex)",57,53,-6.58,1
,Survivin (from UniProt O15392 1-142) (natural protein),255,,,
,"CPC_(ISB10-221) (INCENP_(1-58), Survivin and Borealin_(10-221)) (from UniProt Q9NQS7 1-58; O15392 1-142; Q53HL2 10-221) (complex)",163,,,
2,Sgo1_(1-415) (from UniProt Q5FBB7 1-415) (domain or fragment),,,,
